Test results from paper PMC6969876, “NADPH biosensor-based identification of an alcohol dehydrogenase variant with improved catalytic properties caused by a single charge reversal at the protein surface” (AMB Express, 2020).

Molecular target: LbADH^K71E, variant of the NADPH-dependent alcohol dehydrogenase of Lactobacillus brevis, with N-terminal Strep-tag II (Lactobacillus brevis)
Experiment: SEC; Superdex 200 increase 10/300 GL, buffer A (50 mM triethanolamine hydrochloride, 1 mM MgCl2, pH 7.0), 0.75 mL/min; apparent native mass from a calibration curve with carbonic anhydrase, bovine serum albumin, alcohol dehydrogenase and beta-amylase; affinity-purified protein loaded

## LbADH^K71E, variant of the NADPH-dependent alcohol dehydrogenase of Lactobacillus brevis, with N-terminal Strep-tag II (enzyme)
  stoichiometry N: 4
